*1 amine or outer side, *2 acyl side, *3 side chain or, on linkers, in order; H or OH if unused. Bridges are numbered along the chain shown (N, C = ends). [ ]: non-standard residue; d: D form. Trp(1-Me) = Cn1cc(C[C@H](N)C(=O)O)c2ccccc21; 2Nal = N[C@@H](Cc1ccc2ccccc2c1)C(=O)O; AEF = NCCOc1ccc(C[C@H](N)C(=O)O)cc1; αMeL = CC(C)C[C@](C)(N)C(=O)O; CH2COCH2 = O=C(C[*:1])C[*:2]; αMeK = C[C@](N)(CCCCN)C(=O)O

For assay [1], the target named is T1, human IL-23R endogenously expressed on DB cells (CRL-2289) (human, UniProt Q5VWK5 24-629).
T1 sequence (looked up): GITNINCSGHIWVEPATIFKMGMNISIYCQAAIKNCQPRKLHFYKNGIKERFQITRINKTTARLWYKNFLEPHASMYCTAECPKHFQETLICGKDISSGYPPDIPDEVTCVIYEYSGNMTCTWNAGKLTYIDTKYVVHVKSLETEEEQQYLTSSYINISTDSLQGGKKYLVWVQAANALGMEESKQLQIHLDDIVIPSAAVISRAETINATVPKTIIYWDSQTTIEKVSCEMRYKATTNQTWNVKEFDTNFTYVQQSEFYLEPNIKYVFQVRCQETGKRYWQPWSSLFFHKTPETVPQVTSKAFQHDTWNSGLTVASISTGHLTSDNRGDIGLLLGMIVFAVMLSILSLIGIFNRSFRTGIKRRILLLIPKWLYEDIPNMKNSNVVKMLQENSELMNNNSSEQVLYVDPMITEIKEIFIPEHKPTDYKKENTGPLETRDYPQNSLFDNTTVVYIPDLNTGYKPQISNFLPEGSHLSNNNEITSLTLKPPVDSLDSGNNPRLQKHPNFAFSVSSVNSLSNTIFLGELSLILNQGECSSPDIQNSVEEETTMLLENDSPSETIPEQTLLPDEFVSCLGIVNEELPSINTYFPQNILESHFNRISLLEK
The assay can be described thus: cell-based or functional assay.

The target of assay [2] is T2, Nluc-IL23R fusion protein (human, UniProt Q5VWK5 22-629).
T2 construct: range 22-629; Stably expressed in HEK293 cells; also called hIL-23R; human IL-23R fused to a Nanoluc luciferase enzyme; not shown: Nanoluc luciferase (Promega N1371 plasmid) at the N-terminus
T2 sequence (looked up): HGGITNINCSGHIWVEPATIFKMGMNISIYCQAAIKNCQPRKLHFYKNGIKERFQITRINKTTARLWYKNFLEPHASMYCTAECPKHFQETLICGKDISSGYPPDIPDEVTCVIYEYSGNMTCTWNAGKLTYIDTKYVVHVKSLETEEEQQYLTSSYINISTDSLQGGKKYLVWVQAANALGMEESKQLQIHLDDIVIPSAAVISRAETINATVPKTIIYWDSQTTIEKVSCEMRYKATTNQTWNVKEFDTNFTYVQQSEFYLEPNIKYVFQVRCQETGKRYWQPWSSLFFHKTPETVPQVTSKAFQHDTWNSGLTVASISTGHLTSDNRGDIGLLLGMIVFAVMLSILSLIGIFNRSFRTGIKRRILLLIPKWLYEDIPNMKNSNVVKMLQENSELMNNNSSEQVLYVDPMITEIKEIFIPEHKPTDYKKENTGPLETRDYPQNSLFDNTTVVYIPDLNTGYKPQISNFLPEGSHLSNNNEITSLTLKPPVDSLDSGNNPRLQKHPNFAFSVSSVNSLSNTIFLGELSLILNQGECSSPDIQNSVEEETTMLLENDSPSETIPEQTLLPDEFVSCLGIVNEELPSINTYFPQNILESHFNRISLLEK
The assay can be described thus: BRET displacement of TAMRA-labelled peptide, Nluc-IL23R membranes. For orientation: In BRET a luciferase serves as donor, and the signal depends on an acceptor being close.

B1: Compound 61 (peptide)
peptide: Ac-DESCWQCW[2Nal][αMeK]KENG-NH2
modifications: lactam 2-11; linker 4-7 via CH2COCH2
SMILES: CC(=O)N[C@@H](CC(=O)O)C(=O)N[C@H]1CCC(=O)NCCCC[C@@H](C(=O)N[C@@H](CCC(=O)O)C(=O)N[C@@H](CC(N)=O)C(=O)NCC(N)=O)NC(=O)[C@](C)(CCCCN)NC(=O)[C@H](Cc2ccc3ccccc3c2)NC(=O)[C@H](Cc2c[nH]c3ccccc23)NC(=O)[C@@H]2CSCC(=O)CSC[C@H](NC(=O)[C@H](CO)NC1=O)C(=O)N[C@@H](Cc1c[nH]c3ccccc13)C(=O)N[C@@H](CCC(N)=O)C(=O)N2
For orientation: Ki means the equilibrium dissociation constant of an inhibitor or competing ligand from its target. Read a low Ki as tighter binding. For the molecule B1, the “IC50 (pSTAT3)” value in assay [1] was above 1 µM. Further, the Ki in assay [2] amounted to 436 nM.

B2: Compound 25 (peptide)
peptide: Ac-KSC[2Nal]QCW[2Nal]LER-NH2
modifications: lactam 1-10; linker 3-6 via CH2COCH2
SMILES: CC(=O)N[C@H]1CCCCNC(=O)CC[C@@H](C(=O)N[C@@H](CCCNC(=N)N)C(N)=O)NC(=O)[C@H](CC(C)C)NC(=O)[C@H](Cc2ccc3ccccc3c2)NC(=O)[C@H](Cc2c[nH]c3ccccc23)NC(=O)[C@@H]2CSCC(=O)CSC[C@H](NC(=O)[C@H](CO)NC1=O)C(=O)N[C@@H](Cc1ccc3ccccc3c1)C(=O)N[C@@H](CCC(N)=O)C(=O)N2
As for B2, the “IC50 (pSTAT3)” value in assay [1] is above 1 µM. For the same molecule, in assay [2], the affinity, expressed as Ki, was 185 nM.

B3: Compound 32 (peptide)
peptide: KSCWQCWXLER
HELM: PEPTIDE1{[ac].K.S.C.W.Q.C.W.[Cn1cc(C[C@H](N[*:1])C(=O)[*:2])c2ccccc21].L.E.R.[am]}|CHEM1{[O=C(C[*:1])C[*:2]]}$PEPTIDE1,PEPTIDE1,2:R3-11:R3|PEPTIDE1,CHEM1,4:R3-1:R1|PEPTIDE1,CHEM1,7:R3-1:R2$$$V2.0
SMILES: CC(=O)N[C@H]1CCCCNC(=O)CC[C@@H](C(=O)N[C@@H](CCCNC(=N)N)C(N)=O)NC(=O)[C@H](CC(C)C)NC(=O)[C@H](Cc2cn(C)c3ccccc23)NC(=O)[C@H](Cc2c[nH]c3ccccc23)NC(=O)[C@@H]2CSCC(=O)CSC[C@H](NC(=O)[C@H](CO)NC1=O)C(=O)N[C@@H](Cc1c[nH]c3ccccc13)C(=O)N[C@@H](CCC(N)=O)C(=O)N2
With B3, the “IC50 (pSTAT3)” value in assay [1] came to 118 nM. For the same molecule, affinity in assay [2] was put at a Ki of 14.2 nM.

B4: Compound 55 (peptide)
peptide: DEQCWQCYWXKR
HELM: PEPTIDE1{[ac].D.E.Q.C.W.Q.C.Y.W.[CC(C)C[C@](C)(N[*:1])C(=O)[*:2]].K.R.[am]}|CHEM1{[O=C(C[*:1])C[*:2]]}$PEPTIDE1,PEPTIDE1,3:R3-12:R3|PEPTIDE1,CHEM1,5:R3-1:R1|PEPTIDE1,CHEM1,8:R3-1:R2$$$V2.0
SMILES: CC(=O)N[C@@H](CC(=O)O)C(=O)N[C@H]1CCC(=O)NCCCC[C@@H](C(=O)N[C@@H](CCCNC(=N)N)C(N)=O)NC(=O)[C@](C)(CC(C)C)NC(=O)[C@H](Cc2c[nH]c3ccccc23)NC(=O)[C@H](Cc2ccc(O)cc2)NC(=O)[C@@H]2CSCC(=O)CSC[C@H](NC(=O)[C@H](CCC(N)=O)NC1=O)C(=O)N[C@@H](Cc1c[nH]c3ccccc13)C(=O)N[C@@H](CCC(N)=O)C(=O)N2
B4: in assay [1], the “IC50 (pSTAT3)” value is above 1 µM. Besides, in assay [2], affinity was put at a Ki of 272 nM.

B5: Compound 27 (peptide)
peptide: Ac-KSC[Trp(1-Me)]QCW[2Nal]LER-NH2
modifications: lactam 1-10; linker 3-6 via CH2COCH2
SMILES: CC(=O)N[C@H]1CCCCNC(=O)CC[C@@H](C(=O)N[C@@H](CCCNC(=N)N)C(N)=O)NC(=O)[C@H](CC(C)C)NC(=O)[C@H](Cc2ccc3ccccc3c2)NC(=O)[C@H](Cc2c[nH]c3ccccc23)NC(=O)[C@@H]2CSCC(=O)CSC[C@H](NC(=O)[C@H](CO)NC1=O)C(=O)N[C@@H](Cc1cn(C)c3ccccc13)C(=O)N[C@@H](CCC(N)=O)C(=O)N2
B5: in assay [1], the “IC50 (pSTAT3)” value was 15.5 nM. Further, the Ki in assay [2] came to 1.77 nM.

B6: Compound 47 (peptide)
peptide: Ac-KSCWQC[AEF][2Nal][αMeL]ER-NH2
modifications: lactam 1-10; linker 3-6 via CH2COCH2
SMILES: CC(=O)N[C@H]1CCCCNC(=O)CC[C@@H](C(=O)N[C@@H](CCCNC(=N)N)C(N)=O)NC(=O)[C@](C)(CC(C)C)NC(=O)[C@H](Cc2ccc3ccccc3c2)NC(=O)[C@H](Cc2ccc(OCCN)cc2)NC(=O)[C@@H]2CSCC(=O)CSC[C@H](NC(=O)[C@H](CO)NC1=O)C(=O)N[C@@H](Cc1c[nH]c3ccccc13)C(=O)N[C@@H](CCC(N)=O)C(=O)N2
Regarding B6, the “IC50 (pSTAT3)” value in assay [1] is 17.2 nM. The same molecule displayed a Ki in assay [2] of 0.624 nM.

B7: Compound 28 (peptide)
peptide: Ac-DKSCWQC[2Nal][2Nal]LER-NH2
modifications: lactam 2-11; linker 4-7 via CH2COCH2
SMILES: CC(=O)N[C@@H](CC(=O)O)C(=O)N[C@H]1CCCCNC(=O)CC[C@@H](C(=O)N[C@@H](CCCNC(=N)N)C(N)=O)NC(=O)[C@H](CC(C)C)NC(=O)[C@H](Cc2ccc3ccccc3c2)NC(=O)[C@H](Cc2ccc3ccccc3c2)NC(=O)[C@@H]2CSCC(=O)CSC[C@H](NC(=O)[C@H](CO)NC1=O)C(=O)N[C@@H](Cc1c[nH]c3ccccc13)C(=O)N[C@@H](CCC(N)=O)C(=O)N2
Turning to B7, the “IC50 (pSTAT3)” value in assay [1] worked out at 27.4 nM. For the same molecule, the affinity in assay [2], expressed as Ki, was 4.52 nM.

B8: Compound 60 (peptide)
peptide: Ac-DESCWQCW[2Nal][αMeL]KG-NH2
modifications: lactam 2-11; linker 4-7 via CH2COCH2
SMILES: CC(=O)N[C@@H](CC(=O)O)C(=O)N[C@H]1CCC(=O)NCCCC[C@@H](C(=O)NCC(N)=O)NC(=O)[C@](C)(CC(C)C)NC(=O)[C@H](Cc2ccc3ccccc3c2)NC(=O)[C@H](Cc2c[nH]c3ccccc23)NC(=O)[C@@H]2CSCC(=O)CSC[C@H](NC(=O)[C@H](CO)NC1=O)C(=O)N[C@@H](Cc1c[nH]c3ccccc13)C(=O)N[C@@H](CCC(N)=O)C(=O)N2
As for B8, the “IC50 (pSTAT3)” value in assay [1] is 666 nM. In assay [2], the Ki was determined as 212 nM.

B9: Compound 59 (peptide)
peptide: Ac-DESCWQCW[2Nal][αMeL]KNG-NH2
modifications: lactam 2-11; linker 4-7 via CH2COCH2
SMILES: CC(=O)N[C@@H](CC(=O)O)C(=O)N[C@H]1CCC(=O)NCCCC[C@@H](C(=O)N[C@@H](CC(N)=O)C(=O)NCC(N)=O)NC(=O)[C@](C)(CC(C)C)NC(=O)[C@H](Cc2ccc3ccccc3c2)NC(=O)[C@H](Cc2c[nH]c3ccccc23)NC(=O)[C@@H]2CSCC(=O)CSC[C@H](NC(=O)[C@H](CO)NC1=O)C(=O)N[C@@H](Cc1c[nH]c3ccccc13)C(=O)N[C@@H](CCC(N)=O)C(=O)N2
Turning to B9, the “IC50 (pSTAT3)” value in assay [1] was 297 nM. Also, the Ki in assay [2] was 139 nM.

B10: Compound 31 (peptide)
peptide: KSCWQCWXLER
HELM: PEPTIDE1{[ac].K.S.C.W.Q.C.W.[O=C([C@H](Cc1ccc(F)cc1)N[*:1])[*:2]].L.E.R.[am]}|CHEM1{[O=C(C[*:1])C[*:2]]}$PEPTIDE1,PEPTIDE1,2:R3-11:R3|PEPTIDE1,CHEM1,4:R3-1:R1|PEPTIDE1,CHEM1,7:R3-1:R2$$$V2.0
SMILES: CC(=O)N[C@H]1CCCCNC(=O)CC[C@@H](C(=O)N[C@@H](CCCNC(=N)N)C(N)=O)NC(=O)[C@H](CC(C)C)NC(=O)[C@H](Cc2ccc(F)cc2)NC(=O)[C@H](Cc2c[nH]c3ccccc23)NC(=O)[C@@H]2CSCC(=O)CSC[C@H](NC(=O)[C@H](CO)NC1=O)C(=O)N[C@@H](Cc1c[nH]c3ccccc13)C(=O)N[C@@H](CCC(N)=O)C(=O)N2
As for B10, the “IC50 (pSTAT3)” value in assay [1] was found to be 968 nM. The molecule also returned a Ki in assay [2] of 76.3 nM.

B11: Compound 58 (peptide)
peptide: Ac-DESCWQCW[2Nal][αMeL]KENG-NH2
modifications: lactam 2-11; linker 4-7 via CH2COCH2
SMILES: CC(=O)N[C@@H](CC(=O)O)C(=O)N[C@H]1CCC(=O)NCCCC[C@@H](C(=O)N[C@@H](CCC(=O)O)C(=O)N[C@@H](CC(N)=O)C(=O)NCC(N)=O)NC(=O)[C@](C)(CC(C)C)NC(=O)[C@H](Cc2ccc3ccccc3c2)NC(=O)[C@H](Cc2c[nH]c3ccccc23)NC(=O)[C@@H]2CSCC(=O)CSC[C@H](NC(=O)[C@H](CO)NC1=O)C(=O)N[C@@H](Cc1c[nH]c3ccccc13)C(=O)N[C@@H](CCC(N)=O)C(=O)N2
On to B11, for which the “IC50 (pSTAT3)” value in assay [1] is 597 nM. Besides, in assay [2], the Ki came out at 201 nM.

These data come from patent publication US20250154198A1, “PEPTIDE INHIBITORS OF INTERLEUKIN-23 RECEPTOR” (Zealand Pharma A/S, priority 2021, published 2025).
